The values that follow come from the supplement of paper PMC10724198.

The subject of this series is Saccharomyces cerevisiae. Description: protein stability index of tFT-peptide fusion (C-terminal peptide) (PSI (0-1 scale)); higher = more stable (slower turnover). As to conditions: temperature: 30 C. As to the method: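 MPS profiling in S. cerevisiae of the yeast C-terminome library: the last 12 aa of each annotated ORF are fused to the C-terminus of a sfGFP-mCherry timer, after a GGGS linker. Cells are FACS-sorted into 8 mCherry/sfGFP bins and deep-sequenced. PSI runs from 0 (unstable) to 1 (stable); wild type and das1Δ backgrounds, two technical replicates each.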

[1] abbreviates: genetic background: das1 deletion.

± gives the standard deviation of the averaged measurements.

The sequence VYEYIVNVNEYA [CPS1 C-terminal 12 aa] gave a protein stability index under setting [1] of 0.6949 ± 0.0031 and a protein stability index (genetic background: wild type) of 0.682 ± 0.0094.

Take WEHAMRSRRHKR [SWC3 C-terminal 12 aa]: the protein stability index reads like this: under setting [1], 0.726 ± 0.0012; (genetic background: wild type) 0.673 ± 0.027.

Consider WEKFIELEKNYK [MST1 C-terminal 12 aa], for which the protein stability index reads like this: under setting [1], 0.696 ± 0.0078; (genetic background: wild type) 0.799 ± 0.04.

For “WHKHKTSSDKNI [YDR261C-D C-terminal 12 aa]”, the protein stability index runs as follows: under setting [1], 0.733 ± 0.02; (genetic background: wild type) 0.749 ± 0.012.

For the sequence WKLAKLQIDEAL [SNX41 C-terminal 12 aa], the protein stability index was 0.693 ± 0.0081 under setting [1] and 0.6896 ± 0.0063 (genetic background: wild type).

For the sequence WLSKSGSSAALP [TOS1 C-terminal 12 aa], the protein stability index by setting is: under setting [1], 0.717 ± 0.014; (genetic background: wild type) 0.685 ± 0.022.

In the case of “WQLVDNYESGYE [YGL194C-A C-terminal 12 aa]”, the protein stability index is 0.7087 ± 0.0048 under setting [1] and 0.648 ± 0.031 (genetic background: wild type).

For WQTLVMILQESG [NPL4 C-terminal 12 aa], the protein stability index under setting [1] came to 0.392 ± 0.0077 and the protein stability index (genetic background: wild type) came out at 0.444 ± 0.021.

As to WTLLSRFLDREW [ATG36 C-terminal 12 aa], the protein stability index is 0.684 ± 0.015 under setting [1] and 0.6939 ± 0.0011 (genetic background: wild type).

On to WVDAFGIIYGAL [YIL108W C-terminal 12 aa], for which the protein stability index was found to be 0.7436 ± 0.0063 under setting [1] and 0.7232 ± 0.0018 (genetic background: wild type).

The sequence YALKRNAFKLLK [CRD1 C-terminal 12 aa] returned a protein stability index under setting [1] of 0.682 ± 0.011 and a protein stability index (genetic background: wild type) of 0.691 ± 0.02.

Turning to YDLEAGENKFNF [URA7 C-terminal 12 aa], the protein stability index is, setting by setting: under setting [1], 0.7022 ± 0.0022; (genetic background: wild type) 0.703 ± 0.0099.

In turn, YEKVVELWNKVV [MNT4 C-terminal 12 aa] yielded a protein stability index under setting [1] of 0.701 ± 0.018 and a protein stability index (genetic background: wild type) of 0.199 ± 0.0098.

Regarding YEPTDWECTDAP [YJR096W C-terminal 12 aa], the protein stability index turned out to be 0.7254 ± 0.0027 under setting [1] and 0.708 ± 0.06 (genetic background: wild type).

YITTPSSSGHAL [YIL141W C-terminal 12 aa]: the protein stability index reads like this: under setting [1], 0.716 ± 0.0081; (genetic background: wild type) 0.674 ± 0.027.

YKIKKQPRKKQQ [HST1 C-terminal 12 aa] gave a protein stability index under setting [1] of 0.739 ± 0.015 and a protein stability index (genetic background: wild type) of 0.708 ± 0.081.

In the case of YKLGPGEDTATK [DPL1 C-terminal 12 aa], the protein stability index worked out at 0.707 ± 0.023 under setting [1] and 0.702 ± 0.032 (genetic background: wild type).

Consider YLALKWIVVEQK [ADP1 C-terminal 12 aa], for which the protein stability index came out at 0.521 ± 0.021 under setting [1] and 0.573 ± 0.018 (genetic background: wild type).

YLEHQQIHGRVV [YHR145C C-terminal 12 aa] registered a protein stability index under setting [1] of 0.679 ± 0.017 and a protein stability index (genetic background: wild type) of 0.691 ± 0.013.

The sequence YLKNYFKTKHII [ERV25 C-terminal 12 aa] showed a protein stability index under setting [1] of 0.702 ± 0.018 and a protein stability index (genetic background: wild type) of 0.185 ± 0.0056.

As for “YLTFYKSPKTFY [YDR183C-A C-terminal 12 aa]”, the protein stability index was 0.71 ± 0.037 under setting [1] and 0.637 ± 0.055 (genetic background: wild type).

In the case of “YNSDSGSYYTLM [YOR192C-C C-terminal 12 aa]”, the protein stability index was 0.704 ± 0.017 under setting [1] and 0.731 ± 0.097 (genetic background: wild type).

Regarding YPGEAKRPQERF [COX10 C-terminal 12 aa], the protein stability index reads like this: under setting [1], 0.6898 ± 0.0058; (genetic background: wild type) 0.7 ± 0.047.

As to YSDTIWNVEPVT [GPH1 C-terminal 12 aa], the protein stability index by setting is: under setting [1], 0.729 ± 0.015; (genetic background: wild type) 0.73 ± 0.018.

Consider YSKHLKRLLPYH [MRP35 C-terminal 12 aa], for which the protein stability index under setting [1] was determined as 0.6788 ± 0.0019 and the protein stability index (genetic background: wild type) was determined as 0.712 ± 0.071.

For the sequence YTNLIASKVKKQ [YKL177W C-terminal 12 aa], the protein stability index worked out at 0.714 ± 0.036 under setting [1] and 0.6504 ± 0.0044 (genetic background: wild type).
